The target in experiment [1] is human IFNAR-1 on human cells (HeLa, WISH, A549) (human) (UniProt P17181). The experiment can be described thus: cell-based or functional assay.
Experiment [2] addresses murine IFNAR-1 on murine cells (L-929, NFS-01) (murine) (UniProt P33896). The experiment can be described thus: cell-based or functional assay.
In experiment [3] the target is T1, human IFNAR1-ECD (human, UniProt P17181 28-436).
T1 construct: extracellular domain; Purified ECD captured on the chip by antibody DB2 and cross-linked with AA3; also called purified human IFNAR-1
T1 sequence (looked up): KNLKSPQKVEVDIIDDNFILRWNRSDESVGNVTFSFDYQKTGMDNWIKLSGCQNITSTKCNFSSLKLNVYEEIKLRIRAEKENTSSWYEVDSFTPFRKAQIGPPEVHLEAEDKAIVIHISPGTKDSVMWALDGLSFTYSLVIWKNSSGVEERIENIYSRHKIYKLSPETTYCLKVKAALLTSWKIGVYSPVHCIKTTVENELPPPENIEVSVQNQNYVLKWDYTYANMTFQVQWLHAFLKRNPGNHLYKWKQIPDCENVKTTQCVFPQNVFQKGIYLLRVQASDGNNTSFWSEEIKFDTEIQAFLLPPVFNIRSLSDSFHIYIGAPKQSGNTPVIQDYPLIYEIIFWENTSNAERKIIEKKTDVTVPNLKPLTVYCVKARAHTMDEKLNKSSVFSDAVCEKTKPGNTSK
The experiment can be described thus: SPR, IFNAR-1-ECD captured by antibody. (SPR reads the build-up and loss of mass on a sensor chip optically.)
Method: Binding to purified human IFNAR-1 and IFNAR-2 is measured with the Protein Interaction Array system (Bio-Rad) according to published methods. A solution of 0.005% Tween20 in PBS pH 7.4 was used as running buffer at a flow rate of 30 μl/min. […] Thereafter, five of the six channels were reacted with IFNAR1-ECD or IFNAR2-ECD (180 μl at a concentration of 0.5 μM), leaving one channel free as reference. This was followed by cross-linking a second antibody. […] Data were analyzed with the BIAeval 4.1 software, using, the standard Langmuir models for fitting kinetic data. Dissociation constants KD were determined from the rate constants according to:

Results on 19 molecules are retold here after US20110224407A1 (published 2011).

Sequence of murine IFNAR-1 on murine cells (L-929, NFS-01) (murine) (P33896 27-590): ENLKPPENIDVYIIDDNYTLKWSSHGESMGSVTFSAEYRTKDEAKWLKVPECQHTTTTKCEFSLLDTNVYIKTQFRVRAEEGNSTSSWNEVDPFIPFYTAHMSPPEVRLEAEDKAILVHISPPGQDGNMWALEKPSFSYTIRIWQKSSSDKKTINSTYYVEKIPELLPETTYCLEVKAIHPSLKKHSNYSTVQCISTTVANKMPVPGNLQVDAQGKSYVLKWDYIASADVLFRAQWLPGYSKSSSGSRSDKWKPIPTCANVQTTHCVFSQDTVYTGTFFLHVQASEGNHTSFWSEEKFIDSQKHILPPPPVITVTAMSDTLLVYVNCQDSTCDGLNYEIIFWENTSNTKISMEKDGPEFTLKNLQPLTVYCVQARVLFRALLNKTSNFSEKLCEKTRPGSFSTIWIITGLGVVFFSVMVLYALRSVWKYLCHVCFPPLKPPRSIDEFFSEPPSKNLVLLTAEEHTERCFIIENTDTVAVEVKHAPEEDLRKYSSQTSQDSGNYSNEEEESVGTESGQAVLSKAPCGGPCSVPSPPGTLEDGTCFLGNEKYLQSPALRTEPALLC

As to “IFN-α2 NLYY-117A (N65A/L80A/Y85A/Y89A/L117A) (from UniProt P01563 24-188) (ligand)”, in experiment [1], the Antiviral Activity (% of Native EC50), Human (Wish) was found to be 0.03%.
Turning to “IFN-α2 NLYY-120A (N65A/L80A/Y85A/Y89A/R120A) (from UniProt P01563 24-188) (ligand)”, in experiment [1], the Antiproliferative Activity (% of Native EC50), Human (Wish) was less than 0.001%; the Antiviral Activity (% of Native EC50), Human (HeLa) is less than 0.002%; the Antiviral Activity (% of Native EC50), Human (Wish) was less than 0.001%.
With “IFN-α2/α1 5-site alanine substitution mutant (F64/N65/L80/C85/Y89) (from UniProt A0A087WWS6 25-190) (ligand)”, in experiment [1], the Antiviral Activity (% of Native), Human (HeLa) stood at 4.2% and the Antiviral Activity (% of Native), Human (Wish) was 11%.
In experiment [1], “IFN-α2/α1[C85A/Y89A] (from UniProt A0A087WWS6 25-190) (ligand)” showed an Antiviral Activity (% of Native), Human (HeLa) of 143% and an Antiviral Activity (% of Native), Human (Wish) of 183%.
Molecule “IFN-α2/α1[C85A] (from UniProt A0A087WWS6 25-190) (ligand)” came in with an Antiviral Activity (% of Native), Murine (L-929) in experiment [2] of 144%. Further, the Antiviral Activity (% of Native), Human (HeLa) in experiment [1] amounted to 141%.
In experiment [2], “IFN-α2/α1[K120A/K121A] (from UniProt A0A087WWS6 25-190) (ligand)” came in with an Antiproliferative Activity (% of native), Murine (NFS-01) of 8% and an Antiviral Activity (% of Native), Murine (L-929) of 33%. In experiment [1], the Antiproliferative Activity (% of native), Human (WISH) stood at 0.5%; the Antiviral Activity (% of Native), Human (HeLa) turned out to be 8.3%; the Antiviral Activity (% of Native), Human (Wish) worked out at 13.8%.
Taken in the same sequence, the figures for “IFN-α2/α1[K120A] (from UniProt A0A087WWS6 25-190) (ligand)” were 0.03%, 2%, 0.7%, 2% and 9.7%.
Molecule “IFN-α2/α1[K120E/K121E/R124E] (from UniProt A0A087WWS6 25-190) (ligand)” registered an Antiviral Activity (% of Native), Murine (L-929) in experiment [2] of less than 0.01%. In experiment [1], this molecule yielded an Antiproliferative Activity (% of native), Human (WISH) of less than 0.2%; an Antiviral Activity (% of Native), Human (HeLa) of less than 0.04%; an Antiviral Activity (% of Native), Human (Wish) of less than 0.1%.
In experiment [2], “IFN-α2/α1[K120E/K121E] (from UniProt A0A087WWS6 25-190) (ligand)” displayed an Antiproliferative Activity (% of native), Murine (NFS-01) of less than 0.0001% and an Antiviral Activity (% of Native), Murine (L-929) of less than 0.04%. Besides, in experiment [1], the Antiproliferative Activity (% of native), Human (WISH) was less than 0.05%; the Antiviral Activity (% of Native), Human (HeLa) is less than 0.08%; the Antiviral Activity (% of Native), Human (Wish) was determined as 0.006%.
The like results for “IFN-α2/α1[K120E] (from UniProt A0A087WWS6 25-190) (ligand)” were, in that order, less than 0.0005%, less than 0.04%, less than 0.02%, less than 0.04% and less than 0.02%.
“IFN-α2/α1[K121E] (from UniProt A0A087WWS6 25-190) (ligand)” came in with an Antiviral Activity (% of Native), Murine (L-929) in experiment [2] of 0.5%. The Antiviral Activity (% of Native), Human (HeLa) in experiment [1] was 8%.
In the case of “IFN-α2/α1[L80A/C85A/Y89A] (from UniProt A0A087WWS6 25-190) (ligand)”, the Antiviral Activity (% of Native), Murine (L-929) in experiment [2] is 100%. In experiment [1], this molecule showed an Antiviral Activity (% of Native), Human (HeLa) of 54% and an Antiviral Activity (% of Native), Human (Wish) of 204%.
For the molecule “IFN-α2/α1[L80A] (from UniProt A0A087WWS6 25-190) (ligand)”, in experiment [2], the Antiviral Activity (% of Native), Murine (L-929) came out at 31%. In experiment [1], this molecule displayed an Antiviral Activity (% of native), Human; *Assay on human A549 cells of 19%.
“IFN-α2/α1[N65A/L80A/C85A/Y89A] (from UniProt A0A087WWS6 25-190) (ligand)” showed an Antiviral Activity (% of Native), Murine (L-929) in experiment [2] of 55%. Moreover, the Antiviral activity (relative %), IFN-α2/α1, Human HeLa (partial results) in experiment [1] worked out at 63%.
In experiment [2], “IFN-α2/α1[R124E] (from UniProt A0A087WWS6 25-190) (ligand)” returned an Antiviral Activity (% of Native), Murine (L-929) of 100%. In addition, in experiment [1], the Antiviral Activity (% of Native), Human (HeLa) was 20%.
Molecule “IFN-α2/α1[Y89A] (from UniProt A0A087WWS6 25-190) (ligand)” displayed an Antiviral Activity (% of Native), Murine (L-929) in experiment [2] of 38%. Moreover, in experiment [1], the Antiviral Activity (% of Native), Human (HeLa) came to 69% and the Antiviral Activity (% of Native), Human (Wish) came to 96%.
Turning to “IFN-α2b-[Arg120Glu/Lys121Glu] (from UniProt P01563 24-188) (ligand)”, in experiment [1], the Antiproliferative Activity (% of Native EC50), Human (Wish) is less than 0.02%; the Antiviral Activity (% of Native EC50), Human (HeLa) was less than 1.3%; the Antiviral Activity (% of Native EC50), Human (Wish) was less than 0.002%.
In experiment [1], “IFN-α2b[R120A] (from UniProt P01563 24-188) (ligand)” came in with an Antiproliferative Activity, Human (Wish; %) of 0.05% and an Antiviral Activity (% of Native EC50), Human (HeLa) of 2.3%.

B1: human-derived chimeric IFN-α2/α1 (native) (ligand)
chain: CDLPQTHSLGSRRTLMLLAQMRKISLFSCLKDRHDFGFPQEEFGNQFQKAETIPVLHEMIQQIFNLFTTKDSSAAWDEDLLDKFCTELYQQLNDLEACVMQEERVGETPLMNADSILAVKKYFRRITLYLTEKKYSPCAWEVVRAEIMRSLSLSTNLQERLRRKE
notes: the text itself names F64; E. coli; also called IFN-αA/D; Hu-alpha2/1
Regarding B1, in experiment [3], the “fold stronger affinity than IFN-α2” value is roughly 5 fold and the “ratio of KD to that of IFN-α2” value was roughly 0.2.
